Measured values reported in patent US20050106100A1, “Compounds containing matrix metalloproteinase substrates and methods of their use” (priority 2003, published 2005).

B1: mouse MMP9 (Mus musculus) (protein)
chain: FQTFKGLKWDHHNITYWIQNYSEDLPRDMIDDAFARAFAVWGEVAPLTFTRVYGPEADIVIQFGVAEHGDGYPFDGKDGLLAHAFPPGAGVQGDAHFDDDELWSLGKGVVIPTYYGNSNGAPCHFPFTFEGRSYSACTTDGRNDGTPWCSTTADYDKDGKFGFCPSERLYTEHGNGEGKPCVFPFIFEGRSYSACTTKGRSDGYRWCATTANYDQDKLYGFCPTRVDATVVGGNSAGELCVFPFVFLGKQYSSCTSDGRRDGRLWCATTSNFDTDKKWGFCPDQGYSLFLVAAHEFGHALGLDHSSVPEALMYPLYSYLEGFPLNKDDIDGIQYLYGRGSKPDPRPPATTTTEPQPTAPPTMCPTIPPTAYPTVGPTVGPTGAPSPGPTSSPSPGPTGAPSPGPTAPPTAGSSEASTESLSPADNPCNVDVFDAIAEIQGALHFFKDGWYWKFLNHRGSPLQGPFLTARTWPALPATLDSAFEDPQTKRVFFFSGRQMWVYTGKTVLGPRSLDKLGLGPEVTHVSGLLPRRLGKALLFSKGRVWRFDLKSQKVDPQSVIRVDKEFSGVPWNSHDIFQYQDKAYFCHGKFFWRVSFQNEVNKVDHEVNQVDDVGYVTYDLLQCP
notes: The turnover of different substrates by active MMP-2 and active MMP-9 was determined using this assay
B2: MMP-2 (Homo sapiens) (protein)
chain: YNFFPRKPKWDKNQITYRIIGYTPDLDPETVDDAFARAFQVWSDVTPLRFSRIHDGEADIMINFGRWEHGDGYPFDGKDGLLAHAFAPGTGVGGDSHFDDDELWTLGEGQVVRVKYGNADGEYCKFPFLFNGKEYNSCTDTGRSDGFLWCSTTYNFEKDGKYGFCPHEALFTMGGNAEGQPCKFPFRFQGTSYDSCTTEGRTDGYRWCGTTEDYDRDKKYGFCPETAMSTVGGNSEGAPCVFPFTFLGNKYESCTSAGRSDGKMWCATTANYDDDRKWGFCPDQGYSLFLVAAHEFGHAMGLEHSQDPGALMAPIYTYTKNFRLSQDDIKGIQELYGASPDIDLGTGPTPTLGPVTPEICKQDIVFDGIAQIRGEIFFFKDRFIWRTVTPRDKPMGPLLVATFWPELPEKIDAVYEAPQEEKAVFFAGNEYWIYSASTLERGYPKPLTSLGLPPDVQRVDAAFNWSKNKKTYIFAGDKFWRYNEVKKKMDPGFPKLIADAWNAIPDNLDAVVDLQGGGHSYFFKGAYYLKLENQSLKSVKFGSIKSDWLGC

Tests used:
Type in all cases: biochemical
[1] = substrate: CC(=O)N1CCC[C@H]1C(=O)N[C@@H](CC(C)C)C(=O)NCC(=O)N[C@@H](CCc1ccccc1)C(=O)N[C@@H](Cc1ccc(O)cc1)C(=O)N[C@@H](CC(C)C)C(=O)NNC(=O)c1ccc(N/N=C/c2ccccc2S(=O)(=O)ON)nc1; assay: Substrate hydrolysis assay with mouse MMP9; conditions: other: mouse MMP9; pH 7.5
Experimental: (§1) The kinetic parameters of substrate hydrolysis were determined using a radio HPLC assay. The turnover of different substrates by active MMP-2 and active MMP-9 was determined using this assay. A stock solution of different test substrates (10 mM) was prepared in 100% DMSO. Stock solutions of the test substrates were diluted 1000 fold (10 nM) in buffer (50 mM Hepes/pH 7.5, 10 mM CaCl2, 0.1% Brij) to give working stock solution. Working stock solution of the test substrate (15 μl) was added to buffer (120 μL) in a test tube and warmed at 37° C. for 2 minutes. To this solution 15 μL of working stock of active MMP-2 (final concentration 10 nM) or active MMP-9 was added (final concentration 2 nM). Finally, 4 μCi of radiolabeled test substrate was added and the solution was mixed and immediately 67.5 µL of the mix was transferred to HPLC vials containing 7.5 μl of 0.5M EDTA for t=0 minute measurement. The rest of the mix in the test tube was incubated at 37° C. for 60 minutes. At the 60 minute time point 67.5 μl of the mix was transferred to the HPLC vial containing 7.5 μL of 0.5 M EDTA for t=60 minute measurement. […] Mobile phase A (MPA) was 25 mM ammonium acetate and mobile phase B (MPB) was 100% acetonitrile. […] The radiolabel was detected by a IN/US beta ram detector. […]

[2] = substrate: CC(=O)N1CCC[C@H]1C(=O)N[C@@H](CCCN)C(=O)NCC(=O)N[C@@H](CCc1ccccc1)C(=O)N[C@@H](CC(C)C)C(=O)NNC(=O)c1ccc(N/N=C/c2ccccc2S(=O)(=O)O)nc1; assay: Substrate hydrolysis assay with mouse MMP9; conditions: other: mouse MMP9; pH 7.5
Experimental: as §1

[3] = substrate: CC(=O)N1CCC[C@H]1C(=O)N[C@@H](CC(C)C)C(=O)NCC(=O)N[C@@H](CCc1ccccc1)C(=O)N[C@@H](Cc1ccc(O)cc1)C(=O)N[C@@H](CC(C)C)C(=O)NNC(=O)c1ccc(N/N=C/c2ccccc2S(=O)(=O)ON)nc1; assay: Kinetic measurements of substrate hydrolysis by active MMP-2 (radio HPLC assay); conditions: other: active MMP-2 final concentration 10 nM, 37° C., 60 minutes, radiolabeled test substrate, pH 7.5
Experimental: (§2) Purified MMP-2 (10 μg) or MMP-9 (10 μg) were reconstituted in 100 μL of TCN buffer. […] Pro-MMP-2 was activated by incubation with 2 nM APMA for 2 hours at 37° C. At the end of incubation 100 μl of 100% glycerol was added to active MMP-2 and active MMP-9 (final concentration 50% glycerol). Active MMP-2 and active MMP-9 were aliquoted and stored at −20° C.
(§3) The level of active protease was always quantified by active site titration studies prior to kinetic studies. The active site of MMP-9 and MMP-2 was titrated using the GM6001 dissolved in 100% DMSO at a stock concentration of 2.5 mM. Dilutions (1:2) of GM6001 were prepared in TCN buffer to give a final concentration of 5 nM to 0.04 nM GM6001 in the active site titration assay. Activated MMP-2 or activated MMP-9 (2 nM) was preincubated with increasing concentrations of GM60001 at 37° C. for 15 minutes in 96 well black microtiter plates. […] Plates were read on fluorescence spectrophotometer at excitation wavelength of 320 nm and emission wavelength of 395 nm. The concentration of the active enzyme was determined using the Morrison equation and Kaleidagraph software (Reading, Pa.).
(§4) The kinetic parameters of substrate hydrolysis were determined using a radio HPLC assay. The turnover of different substrates by active MMP-2 and active MMP-9 was determined using this assay. […] The radiolabel was detected by a IN/US beta ram detector. […]

[4] = substrate: CC(=O)N1CCC[C@H]1C(=O)N[C@@H](CCCN)C(=O)NCC(=O)N[C@@H](CCc1ccccc1)C(=O)N[C@@H](CC(C)C)C(=O)NNC(=O)c1ccc(N/N=C/c2ccccc2S(=O)(=O)O)nc1; assay: as above; conditions: other: active MMP-2 final concentration 10 nM, 37° C., 60 minutes, radiolabeled test substrate, pH 7.5
Experimental: as §2, §3, §4

Protein	kcat/Km [1]	kcat/Km [2]	kcat/Km [3]	kcat/Km [4]
B1	> 100000 M⁻¹ s⁻¹	897 M⁻¹ s⁻¹	–	–
B2	–	–	63200 M⁻¹ s⁻¹	63700 M⁻¹ s⁻¹
